Laboratory results as given in paper PMC7460845, “A Fungal Ascorbate Oxidase with Unexpected Laccase Activity” (International Journal of Molecular Sciences, 2020).

Experiments:
[1] = substrate: CCn1c(=NN=c2sc3cc(S(=O)(=O)O)ccc3n2CC)sc2cc(S(=O)(=O)O)ccc21; test: spectrophotometric ABTS oxidation, plate reader, Lineweaver-Burk; format: biochemical, Aspergillus flavus; details: 0.1 M citrate buffer pH 3.4, 25 °C, 0.5 to 20 mM substrate, oxygen as co-substrate
[2] = substrate: O=C1O[C@H]([C@@H](O)CO)C(O)=C1O; test: purified protein; format: biochemical, Aspergillus flavus; details: pH 5.0, 30 °C, 0.05 to 1 mM substrate, oxygen as co-substrate

B1: Af_AO1 (Aspergillus flavus NRRL3357) (protein)
chain: HLVLHDDSFQPDHILRVTAQDVNQACMDRYSVLINGSLPGPQLNIQEGKVNWIRVYNDMEDLNVTMHWHGLSAFTAPFSDGTPMASQWPIPPGHFFDYEVRPEVGYAGTYFYHSHVGFQALTAWGALIVESAQPSPYQYDEERIIALSDFFTKTDEEIENGLTSTNFTWSGETSAVLVNGQGRLATNATGSCKLAAISVEPGKTYRLRFIGATALSFVSISLESHDVLEIIEADGHYTKPVNTSYLQISSGQRYSVLLKAKTEAELQQAKSRQFYFQLTTMGRPTVLTTFAVLEYPSPTTTDLITVPVTPPLPVANITYGWLDYTLEPYYPDLDFPTVEEVTRRIIINVHQNISDRTVWLQNGYDWVETFPKSPYLVDIYAGTLDLDASYKRAIASGYAFDNQTRLFPAKMGEVLEIVWQNQGAVSNGGVENHPFHAHGRHFYDIGGGDGLYNLTENEARLKGTHPVIRDTTMLYAYRKTTTALEPSGWRAWRIRVTAAGVWMVHCHVLQHMLMGMQTAFAFGDQTAIKAQSGTPAEGYLTYGGSAYGNVTHFPPVKHFFN
notes: natural signal peptide removed, no tag; codon-optimized gene in pPicZalphaB, secreted from Pichia pastoris KM71H; model target 561 residues
Km [1]: 1890 ± 120 µM
Km [2]: 160 ± 30 µM
